Assay results from patent publication US20110110962A1 (INSERM INSTITUT NATIONAL DE LA SANT ET DE LA RECHERCHE M …, published 2011).

Legend:
TLR5 of mice (mouse) = TLR5 of mice (mouse) (UniProt Q9JLF7); assay: cell-based or functional assay
TLR5 of mice = TLR5 of mice (mouse, UniProt Q9JLF7 27-859); assay: cell-based or functional assay
Chain of TLR5 of mice (Q9JLF7 27-859): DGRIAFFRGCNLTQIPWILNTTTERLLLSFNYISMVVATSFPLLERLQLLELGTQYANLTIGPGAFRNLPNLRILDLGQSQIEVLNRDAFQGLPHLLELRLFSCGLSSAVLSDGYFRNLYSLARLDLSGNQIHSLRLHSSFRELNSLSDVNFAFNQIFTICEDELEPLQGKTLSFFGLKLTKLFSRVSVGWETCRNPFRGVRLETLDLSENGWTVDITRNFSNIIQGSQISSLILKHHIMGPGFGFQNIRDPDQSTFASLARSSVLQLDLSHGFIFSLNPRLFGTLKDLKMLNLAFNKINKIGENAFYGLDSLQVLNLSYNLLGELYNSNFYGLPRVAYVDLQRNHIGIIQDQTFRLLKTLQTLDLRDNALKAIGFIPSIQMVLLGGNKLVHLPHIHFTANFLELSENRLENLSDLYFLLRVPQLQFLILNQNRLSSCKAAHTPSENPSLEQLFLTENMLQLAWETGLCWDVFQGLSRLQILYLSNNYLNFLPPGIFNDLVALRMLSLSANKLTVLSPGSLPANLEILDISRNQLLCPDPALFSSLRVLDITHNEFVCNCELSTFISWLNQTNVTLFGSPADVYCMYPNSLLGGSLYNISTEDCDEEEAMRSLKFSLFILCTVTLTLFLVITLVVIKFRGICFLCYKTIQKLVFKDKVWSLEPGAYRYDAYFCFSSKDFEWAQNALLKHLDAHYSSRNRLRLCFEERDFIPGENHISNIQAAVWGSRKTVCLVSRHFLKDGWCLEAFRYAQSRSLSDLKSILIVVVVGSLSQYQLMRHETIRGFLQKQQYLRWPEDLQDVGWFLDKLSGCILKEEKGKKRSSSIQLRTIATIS

Chain of TLR5 of mice (mouse) (Q9JLF7 27-859): as above

**Q.** What does the source list for “FliCΔ174-400 flagellin (from UniProt P06175 2-493) (ligand)”?
**A.** CCL20 mRNA pulmonary levels 2 h after i.n. instillation, against mock-treated animals (TLR5 of mice (mouse)): 30 fold; serum CCL20 after 10 µg i.v. (TLR5 of mice (mouse)): 0.85 ng/mL; systemic pro-inflammatory effects (serum CCL20 and CXCL2 after i.v. injection), against wild type FliC (TLR5 of mice (mouse)): 100 fold

B1: FliCΔ204-292 (ligand)
chain: AQVINTNSLSLLTQNNLNKSQSALGTAIERLSSGLRINSAKDDAAGQAIANRFTANIKGLTQASRNANDGISIAQTTEGALNEINNNLQRVRELAVQSANSTNSQSDLDSIQAEITQRLNEIDRVSGQTQFNGVKVLAQDNTLTIQVGANDGETIDIDLKQINSQTLGLDTLNVQQKYKVSDTAATVTGYADTTIALDNSTFKAALTAAGVTGTASVVKMSYTDNNGKTIDGGLAVKVGDDYYSATQNKDGSISINTTKYTADDGTSKTALNKLGGADGKTEVVSIGGKTYAASKAEGHNFKAQPDLAEAAATTTENPLQKIDAALAQVDTLRSDLGAVQNRFNSAITNLGNTVNNLTSARSRIEDSDYATEVSNMSRAQILQQAGTSVLAQANQVPQNVLSLLR
**Q.** With B1 as the molecule, how does the “CCL20 mRNA pulmonary levels 2 h after i.n. instillation, against mock-treated animals” value (“CCL20 mRNA pulmonary levels 2 h” below) (TLR5 of mice) read?
**A.** ~30 fold

B2: FliCΔ191-352 (ligand)
chain: AQVINTNSLSLLTQNNLNKSQSALGTAIERLSSGLRINSAKDDAAGQAIANRFTANIKGLTQASRNANDGISIAQTTEGALNEINNNLQRVRELAVQSANSTNSQSDLDSIQAEITQRLNEIDRVSGQTQFNGVKVLAQDNTLTIQVGANDGETIDIDLKQINSQTLGLDTLNVQQKYKVSDTAATVTGYLELEDGTSKTALNKLGGADGKTEVVSIGGKTYAASKAEGHNFKAQPDLAEAAATTTENPLQKIDAALAQVDTLRSDLGAVQNRFNSAITNLGNTVNNLTSARSRIEDSDYATEVSNMSRAQILQQAGTSVLAQANQVPQSVLSLLR
**Q.** How did the “CCL20 mRNA pulmonary levels 2 h” value (TLR5 of mice) turn out when B2 was run?
**A.** ~30 fold

B3: Salmonella enterica Serovar Typhimurium ATCC14028 flagellin FliC (ligand)
chain: AQVINTNSLSLLTQNNLNKSQSALGTAIERLSSGLRINSAKDDAAGQAIANRFTANIKGLTQASRNANDGISIAQTTEGALNEINNNLQRVRELAVQSANSTNSQSDLDSIQAEITQRLNEIDRVSGQTQFNGVKVLAQDNTLTIQVGANDGETIDIDLKQINSQTLGLDTLNVQQKYKVSDTAATVTGYADTTIALDNSTFKASATGLGGTDQKIDGDLKFDDTTGKYYAKVTVTGGTGKDGYYEVSVDKTNGEVTLAGGATSPLTGGLPATATEDVKNVQVANADLTEAKAALTAAGVTGTASVVKMSYTDNNGKTIDGGLAVKVGDDYYSATQNKDGSISINTTKYTADDGTSKTALNKLGGADGKTEVVSIGGKTYAASKAEGHNFKAQPDLAEAAATTTENPLQKIDAALAQVDTLRSDLGAVQNRFNSAITNLGNTVNNLTSARSRIEDSDYATEVSNMSRAQILQQAGTSVLAQANQVPQNVLSLLR
**Q.** Which “CCL20 mRNA pulmonary levels 2 h” value (TLR5 of mice) does the source give for B3 here?
**A.** ~30 fold
